Reference: IntAct's records for PubMed 17185412

Columns and labels:
syt2_mouse Syt2 = syt2_mouse Syt2 (UniProt P46097)
syt1_mouse Syt1 = syt1_mouse Syt1 (UniProt P46096)

## Botulinum neurotoxin type B (Clostridium botulinum) (from UniProt P10844) V1118D
syt2_mouse Syt2
  effect of a mutation on the interaction: decreasing interaction strength
syt1_mouse Syt1
  effect of a mutation on the interaction: decreasing interaction strength

## Botulinum neurotoxin type B (Clostridium botulinum) (from UniProt P10844) K1192M
syt1_mouse Syt1
  effect of a mutation on the interaction: decreasing interaction strength

## Botulinum neurotoxin type B (Clostridium botulinum) (from UniProt P10844) W1262L
syt1_mouse Syt1
  effect of a mutation on the interaction: decreasing interaction strength

## Botulinum neurotoxin type B (Clostridium botulinum) (from UniProt P10844) Y1183R
syt2_mouse Syt2
  effect of a mutation on the interaction: decreasing interaction strength
syt1_mouse Syt1
  effect of a mutation on the interaction: decreasing interaction strength

## Botulinum neurotoxin type B (Clostridium botulinum) (from UniProt P10844) K1192E
syt1_mouse Syt1
  effect of a mutation on the interaction: decreasing interaction strength
